Measured values as given in paper PMC10267678, “Proteomic Profiling of Extracellular Matrix Components from Patient Metastases Identifies Consistently Elevated Proteins for Developing Nanobodies That Target Primary Tumors and Metastases” (Cancer Research, 2023).

B1: NJT4 (VHH)
VHH: QVQLVESGGGLVQPGGSLRLSCAASGFTFSSYTMRWYRQAPGKERELVAFIGVAGGSTKYADSVKGRFTISRDNTKNTVYLQMNTLKPEDTAVYYCYAPLTPYWGQGTQVTVSS
notes: The label differs between experiments (biotin, Alexa-647); also called anti-TNC nanobody NJT4; 64Cu-NJT4; source: selected from alpaca phage-display library B; expressed and purified by methods previously described; not shown: sortase tag, C-terminal, kept
B2: NJT3 (VHH)
VHH: QVQLVETGGGLAQAGGSLRLSCAASGRTLSGYAMGWFRQAPGKEREFVAAISWSGRNTYYDYTVQGRFTISKDNAKNTVNLQMNSLKPEDTAVYYCAVSRSLDEFGDGYEMDYWGDGTQVTVSS
notes: The label differs between experiments (biotin, Alexa-647); also called anti-TNC nanobody NJT3; 64Cu-NJT3; source: selected from alpaca phage-display library B; expressed and purified by methods previously described; not shown: sortase tag, C-terminal, kept
B3: NJT6 (VHH)
VHH: QVQLVETGGDLVQPGGSLRLSCAASGLTLDYYAIGWVRQAPGKEREGVSCITPQDGNTYYDDSVMGRFTILRDNAKNMVYLQMNNLKPEDTAVYFCAAAGALTLDPSEYEYWGQGTQVTVSS
notes: The label differs between experiments (biotin, Alexa-647); also called anti-TNC nanobody NJT6; 64Cu-NJT6; source: selected from alpaca phage-display library B; expressed and purified by methods previously described; not shown: sortase tag, C-terminal, kept

Legend:
[1] = molecular target: T1, mouse TNC on tissue sections of lung metastases derived from murine TNBC cell line 4T1 (Mus musculus (4T1 metastases in BALB/c), UniProt Q80YX1); assay: immunostaining of cells or tissue; IHC with the nanobodies on tissue sections of lung metastases (LM2 in NSG mice; 4T1 in BALB/c mice); conditions: one partner purified
T1 construct: tenascin-C, mouse, endogenous in 4T1 lung metastases; source: endogenous, 4T1 lung metastases in BALB/c mice, tissue sections
T1 sequence (Q80YX1 23-2110): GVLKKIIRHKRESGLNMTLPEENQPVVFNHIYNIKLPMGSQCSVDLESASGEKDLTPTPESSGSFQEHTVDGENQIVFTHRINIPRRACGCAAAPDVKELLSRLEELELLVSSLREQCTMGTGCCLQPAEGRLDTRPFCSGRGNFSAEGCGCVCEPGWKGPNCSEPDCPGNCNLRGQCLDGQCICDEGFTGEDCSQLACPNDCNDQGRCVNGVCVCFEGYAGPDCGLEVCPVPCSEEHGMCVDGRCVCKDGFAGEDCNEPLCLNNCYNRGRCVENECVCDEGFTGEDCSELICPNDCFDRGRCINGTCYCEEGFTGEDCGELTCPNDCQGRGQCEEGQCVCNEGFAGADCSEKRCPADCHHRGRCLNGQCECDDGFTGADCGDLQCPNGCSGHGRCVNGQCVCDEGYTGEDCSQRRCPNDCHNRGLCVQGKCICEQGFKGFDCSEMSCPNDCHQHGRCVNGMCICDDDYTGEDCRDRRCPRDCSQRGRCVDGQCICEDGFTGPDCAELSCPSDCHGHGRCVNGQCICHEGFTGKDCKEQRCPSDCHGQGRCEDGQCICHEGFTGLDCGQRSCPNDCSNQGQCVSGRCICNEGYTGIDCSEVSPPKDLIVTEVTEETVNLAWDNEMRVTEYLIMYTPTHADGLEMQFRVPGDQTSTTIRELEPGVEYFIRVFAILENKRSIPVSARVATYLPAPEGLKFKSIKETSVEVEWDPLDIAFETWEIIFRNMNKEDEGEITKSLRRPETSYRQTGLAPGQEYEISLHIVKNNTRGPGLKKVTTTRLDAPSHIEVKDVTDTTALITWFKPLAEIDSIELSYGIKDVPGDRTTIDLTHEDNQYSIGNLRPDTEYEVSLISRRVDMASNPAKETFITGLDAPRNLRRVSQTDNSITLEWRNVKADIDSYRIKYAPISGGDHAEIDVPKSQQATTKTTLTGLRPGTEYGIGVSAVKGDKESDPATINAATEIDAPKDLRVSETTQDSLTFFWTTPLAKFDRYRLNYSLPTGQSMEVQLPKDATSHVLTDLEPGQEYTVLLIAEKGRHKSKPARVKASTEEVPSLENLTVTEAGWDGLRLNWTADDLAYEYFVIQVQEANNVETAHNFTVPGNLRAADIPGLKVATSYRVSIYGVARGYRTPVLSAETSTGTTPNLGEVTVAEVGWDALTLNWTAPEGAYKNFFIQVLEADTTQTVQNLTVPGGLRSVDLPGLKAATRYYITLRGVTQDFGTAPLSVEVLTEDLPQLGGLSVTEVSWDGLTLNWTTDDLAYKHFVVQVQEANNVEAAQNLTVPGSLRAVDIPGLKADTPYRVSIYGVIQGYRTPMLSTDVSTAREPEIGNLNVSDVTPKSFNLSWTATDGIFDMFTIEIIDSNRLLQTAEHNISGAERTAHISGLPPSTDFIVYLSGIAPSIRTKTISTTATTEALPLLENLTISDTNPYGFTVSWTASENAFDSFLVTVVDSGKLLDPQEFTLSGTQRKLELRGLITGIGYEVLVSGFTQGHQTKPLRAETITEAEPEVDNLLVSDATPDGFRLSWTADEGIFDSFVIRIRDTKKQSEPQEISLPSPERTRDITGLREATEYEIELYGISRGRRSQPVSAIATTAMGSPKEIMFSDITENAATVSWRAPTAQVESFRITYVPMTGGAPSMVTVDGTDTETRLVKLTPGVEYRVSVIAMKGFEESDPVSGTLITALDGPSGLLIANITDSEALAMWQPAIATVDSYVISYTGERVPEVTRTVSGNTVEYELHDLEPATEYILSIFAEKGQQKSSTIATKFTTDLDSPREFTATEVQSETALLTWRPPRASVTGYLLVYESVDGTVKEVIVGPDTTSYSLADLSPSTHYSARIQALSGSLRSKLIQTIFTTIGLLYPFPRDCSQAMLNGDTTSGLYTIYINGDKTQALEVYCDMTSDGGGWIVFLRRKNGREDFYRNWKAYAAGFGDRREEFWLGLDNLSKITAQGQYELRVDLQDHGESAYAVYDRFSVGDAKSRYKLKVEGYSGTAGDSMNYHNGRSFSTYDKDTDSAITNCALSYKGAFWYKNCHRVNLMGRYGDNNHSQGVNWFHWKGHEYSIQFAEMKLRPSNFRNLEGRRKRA

[2] = molecular target: T2, human TNC in the ECM of tumors and lung metastases derived from human TNBC cell line LM2 (Homo sapiens (LM2 cells), UniProt P24821); assay: two-photon microscopy of resected organs after intravenous injection of labelled nanobody; Alexa-647 labelled nanobodies injected via the tail vein into NSG mice with LM2-TGL-ZsGreen tumors; organs resected 2 hours after injection and imaged; conditions: one partner purified
T2 construct: tenascin-C, human, made by LM2 human TNBC cells in xenografts; also called hTNC; TNC fibrils; source: endogenous, ECM of LM2 (LM2-TGL-ZsGreen) tumors and lung metastases in NSG mice
T2 sequence (P24821 23-2201): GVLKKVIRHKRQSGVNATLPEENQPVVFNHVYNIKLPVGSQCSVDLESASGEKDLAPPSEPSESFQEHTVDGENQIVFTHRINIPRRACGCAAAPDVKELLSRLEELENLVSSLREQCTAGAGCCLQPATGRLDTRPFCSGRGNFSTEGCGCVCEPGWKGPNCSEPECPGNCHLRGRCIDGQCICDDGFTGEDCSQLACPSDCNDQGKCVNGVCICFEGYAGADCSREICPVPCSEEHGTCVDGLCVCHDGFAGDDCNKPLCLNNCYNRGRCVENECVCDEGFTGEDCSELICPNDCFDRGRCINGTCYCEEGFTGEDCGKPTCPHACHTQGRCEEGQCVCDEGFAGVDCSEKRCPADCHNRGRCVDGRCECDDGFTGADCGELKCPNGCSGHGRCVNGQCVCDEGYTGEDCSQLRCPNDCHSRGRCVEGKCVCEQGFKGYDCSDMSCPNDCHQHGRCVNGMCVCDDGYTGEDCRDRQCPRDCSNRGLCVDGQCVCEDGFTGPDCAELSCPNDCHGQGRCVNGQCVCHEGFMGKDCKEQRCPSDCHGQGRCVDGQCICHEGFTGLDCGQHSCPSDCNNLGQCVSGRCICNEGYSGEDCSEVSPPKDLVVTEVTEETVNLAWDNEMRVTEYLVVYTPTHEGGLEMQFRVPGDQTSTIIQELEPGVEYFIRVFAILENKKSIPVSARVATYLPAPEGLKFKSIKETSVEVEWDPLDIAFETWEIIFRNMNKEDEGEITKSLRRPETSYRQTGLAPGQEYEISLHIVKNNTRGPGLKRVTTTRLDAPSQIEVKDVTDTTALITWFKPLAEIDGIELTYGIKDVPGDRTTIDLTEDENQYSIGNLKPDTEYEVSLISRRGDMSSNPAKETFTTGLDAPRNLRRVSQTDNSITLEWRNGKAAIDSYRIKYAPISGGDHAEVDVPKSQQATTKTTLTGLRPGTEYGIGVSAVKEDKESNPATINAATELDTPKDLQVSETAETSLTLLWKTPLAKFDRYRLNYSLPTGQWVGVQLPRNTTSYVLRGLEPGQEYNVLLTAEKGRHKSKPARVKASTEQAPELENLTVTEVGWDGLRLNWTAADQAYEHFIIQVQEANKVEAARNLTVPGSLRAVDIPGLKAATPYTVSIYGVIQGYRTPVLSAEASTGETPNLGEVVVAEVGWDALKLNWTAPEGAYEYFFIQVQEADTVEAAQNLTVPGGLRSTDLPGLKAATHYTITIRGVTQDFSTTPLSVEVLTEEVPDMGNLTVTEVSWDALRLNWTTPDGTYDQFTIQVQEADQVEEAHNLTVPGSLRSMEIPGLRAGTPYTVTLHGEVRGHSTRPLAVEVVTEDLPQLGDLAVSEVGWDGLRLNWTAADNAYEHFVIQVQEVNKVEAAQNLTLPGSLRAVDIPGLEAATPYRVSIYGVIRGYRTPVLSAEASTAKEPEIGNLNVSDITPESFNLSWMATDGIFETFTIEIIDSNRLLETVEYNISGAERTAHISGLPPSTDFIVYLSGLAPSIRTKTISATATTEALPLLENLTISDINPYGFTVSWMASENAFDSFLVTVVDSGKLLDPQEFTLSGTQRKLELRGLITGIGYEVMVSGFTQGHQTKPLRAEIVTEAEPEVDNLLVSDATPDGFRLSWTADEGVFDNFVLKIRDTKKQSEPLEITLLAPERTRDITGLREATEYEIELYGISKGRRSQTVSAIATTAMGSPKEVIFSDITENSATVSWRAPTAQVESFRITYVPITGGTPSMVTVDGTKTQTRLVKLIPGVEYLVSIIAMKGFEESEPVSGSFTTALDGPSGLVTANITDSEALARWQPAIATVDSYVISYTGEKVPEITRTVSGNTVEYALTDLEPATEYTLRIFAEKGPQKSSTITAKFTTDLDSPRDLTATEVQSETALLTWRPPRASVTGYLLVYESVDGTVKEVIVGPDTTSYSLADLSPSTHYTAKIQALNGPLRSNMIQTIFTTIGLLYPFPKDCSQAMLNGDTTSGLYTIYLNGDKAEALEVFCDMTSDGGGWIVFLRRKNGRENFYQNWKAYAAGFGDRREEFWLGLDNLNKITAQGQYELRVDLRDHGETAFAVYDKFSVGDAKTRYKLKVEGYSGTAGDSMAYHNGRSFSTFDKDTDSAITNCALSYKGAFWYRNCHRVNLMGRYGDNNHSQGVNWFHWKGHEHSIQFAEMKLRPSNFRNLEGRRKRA

[3] = molecular target: T3, full-length human TNC protein (Homo sapiens, UniProt P24821); assay: far-Western, overlay or dot blot; immunoblot of human TNC protein probed with the nanobodies; conditions: both partners purified
T3 construct: tenascin-C, human, full-length recombinant protein (Sigma); also called human tenascin-C; hTNC; source: bought: Sigma-Aldrich (purified, recombinant)
T3 sequence (P24821 23-2201): as above

Binder	binding result [1]	binding result [2]	binding result [3]
B1	no binding	binds	binds
B2	no binding	binds	binds
B3	no binding	binds	binds
